Measured values as given in patent US20260227403A1 (HENRY M JACKSON FOUNDATION FOR THE ADVANCEMENT OF MILITARY …, published 2026).

Assays:
Experiment in all cases: ELISA: 1 µg peptide coated per well, 29E4 at 20 ng/mL, HRP goat anti-rabbit Ig 1:16,000, ABS 450 nm, duplicates [CONT. 1]
P36 = molecular target: T1, P36
T1 construct: C-terminal truncation of P1
T1 peptide: QRQMSEPNIPFPPQGFKQE

[1] = molecular target: T2, peptide P38 (QRQMSEPNIPFPPQGFK) (human)
T2 construct: C-terminal truncation of the immunogenic peptide P1
T2 peptide: QRQMSEPNIPFPPQGFK

P31 = molecular target: T3, P31
T3 construct: C-terminal truncation of P1
T3 peptide: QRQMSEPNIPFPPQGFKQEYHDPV

Measured: binding result

B1: ETV1 rabbit monoclonal antibody (29E4) (antibody, V domains shown)
VH: QELEESGGDLVKPGASLTLTCTASGFFFSAENHICWVRQAPGKGLEWIGCVYIGSYVGGSGDPYYASWAKGRFTISKTSSTTVTLQMSSLTAADTATYFCARDLGSLWGPGTLVTVSS
VL: DVVMTQTASSVSAAVGGTVTIACQSSQSVYDNNNLAWFQQKPGQPPKRLIYSASTLASGVSSRFKGSGYGTQFTLTISDVQCDDAATYYCVGAFSGYIFVFGGGTEVVVK
notes: constant regions are not; also called 29E4 mAb; ETV1 29E4 mAb
binds: P36 | [1] | P31
